Results as given in patent publication US10947296B2, “Fusion protein Slit2D2(C386S)-HSA and use thereof in treatment of fibrotic diseases” (SUZHOU THINKING POWER BIOTECHNOLOGY CO., LTD., priority 2016, dated 2021).

Tests used:
[1] = Pharmacokinetic assay, single intravenous administration; type: in vivo; details: for Plasma drug concentration: IV 2 mg/kg
Experimental: Lines and sources: cynomolgus monkeys, Guangxi Xiongsen Primate Laboratory Animal Breeding Development Co., Ltd.
The test substance was administered in a single dose by intravenous injection.
The blood samples were collected and centrifuged to separate plasma (centrifugation conditions: 8000 rpm, 6 minutes, 2-8° C.). The contents of the label included: the subject number of Medicilon Pharmaceutical Technology (Shanghai) Co., Ltd., relevant test days, serial number of animals, date, and sampling time point. The collected plasma samples were stored in a refrigerator at ≤−65° C. before analysis. After analysis, the remaining plasma samples were stored in the refrigerator at ≤−65° C. for subsequent processing.
The biological sample analysis method and analysis of all samples were performed by the analytical laboratory of Medicilon Pharmaceutical Technology (Shanghai) Co., Ltd. Each plate in the sample analysis must contain a standard curve. At least ¾ of the points and not less than 6 non-zero concentration points (without anchor points) constituting the standard curve should meet the acceptance criteria for method validation. Each plate should also contain at least 2 sets and each set comprised at least 3 quality control samples of different concentration levels (high-concentration quality control, intermediate-concentration quality control, and low-concentration quality control).
The pharmacokinetic parameters were calculated with non-compartmental model using Phoenix pharmacokinetic software: AUC0-t, AUC0-∞, Cmax, t1/2, Tmax, C0, Cl, MRT0-∞ and Vss.

Robo1 protein = biological target: T1, Robo1 protein (Homo sapiens, UniProt Q9Y6N7); test: Affinity of the fusion protein to receptor Robo1 determined by SPR; type: binding; details: Robo1 bound to CM5 chip
T1 construct: purchased ORIGEN TP327713
T1 sequence (Q9Y6N7 26-1651): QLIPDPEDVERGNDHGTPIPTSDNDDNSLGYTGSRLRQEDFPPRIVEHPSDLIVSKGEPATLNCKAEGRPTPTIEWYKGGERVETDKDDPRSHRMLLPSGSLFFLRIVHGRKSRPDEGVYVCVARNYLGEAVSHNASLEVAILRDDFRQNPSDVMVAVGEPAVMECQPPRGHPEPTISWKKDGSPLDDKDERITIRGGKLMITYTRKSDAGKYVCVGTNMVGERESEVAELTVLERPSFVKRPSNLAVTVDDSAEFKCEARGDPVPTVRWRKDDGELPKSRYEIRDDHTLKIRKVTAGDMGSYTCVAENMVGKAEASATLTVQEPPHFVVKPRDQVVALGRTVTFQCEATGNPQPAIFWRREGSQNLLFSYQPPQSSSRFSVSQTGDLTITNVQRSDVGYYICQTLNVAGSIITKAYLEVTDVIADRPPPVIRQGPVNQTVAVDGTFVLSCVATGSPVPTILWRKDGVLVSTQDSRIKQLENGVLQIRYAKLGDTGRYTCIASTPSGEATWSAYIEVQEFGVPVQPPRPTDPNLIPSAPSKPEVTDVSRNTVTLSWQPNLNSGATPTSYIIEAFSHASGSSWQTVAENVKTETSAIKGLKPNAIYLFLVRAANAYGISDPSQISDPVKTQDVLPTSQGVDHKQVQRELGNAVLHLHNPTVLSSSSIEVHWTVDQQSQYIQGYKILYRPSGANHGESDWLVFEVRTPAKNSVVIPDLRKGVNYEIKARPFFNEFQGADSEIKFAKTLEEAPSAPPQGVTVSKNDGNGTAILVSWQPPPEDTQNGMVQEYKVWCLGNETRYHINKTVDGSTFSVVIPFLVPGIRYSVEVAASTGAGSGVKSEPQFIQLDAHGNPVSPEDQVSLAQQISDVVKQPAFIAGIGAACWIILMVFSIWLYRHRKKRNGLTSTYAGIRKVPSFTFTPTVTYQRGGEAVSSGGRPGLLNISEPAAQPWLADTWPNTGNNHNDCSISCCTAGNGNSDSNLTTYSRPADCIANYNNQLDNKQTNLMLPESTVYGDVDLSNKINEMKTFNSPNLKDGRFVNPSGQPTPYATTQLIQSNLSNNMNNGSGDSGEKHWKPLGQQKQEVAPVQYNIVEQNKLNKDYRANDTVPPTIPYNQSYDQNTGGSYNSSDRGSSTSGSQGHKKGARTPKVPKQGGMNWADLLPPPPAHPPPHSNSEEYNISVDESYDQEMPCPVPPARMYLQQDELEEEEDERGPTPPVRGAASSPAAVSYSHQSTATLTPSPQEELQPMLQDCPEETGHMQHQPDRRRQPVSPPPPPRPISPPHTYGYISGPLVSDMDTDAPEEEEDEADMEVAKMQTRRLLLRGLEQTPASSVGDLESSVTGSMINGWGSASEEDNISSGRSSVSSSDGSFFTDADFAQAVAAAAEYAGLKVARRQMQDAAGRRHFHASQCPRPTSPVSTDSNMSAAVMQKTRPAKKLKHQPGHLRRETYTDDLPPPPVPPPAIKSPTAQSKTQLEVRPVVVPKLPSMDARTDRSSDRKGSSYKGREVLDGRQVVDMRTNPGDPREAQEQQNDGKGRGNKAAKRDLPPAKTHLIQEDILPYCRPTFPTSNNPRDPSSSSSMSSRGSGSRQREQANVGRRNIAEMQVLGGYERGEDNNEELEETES
Experimental: The affinity constant between the protein and Robo1 protein was detected by SPR (Surface Plasmon resonance BIAcore 200) method. The Robo1 protein (ORIGEN, Art. No.: TP327713) was bound to a CM5 chip, and the interaction between the fusion protein Slit2D2(C386S)-HSA (prepared in Example 1), Slit2D2-HSA (as disclosed in Patent Application PCT/CN2015/092079), and the receptor protein Robo1 were analyzed. Kinetic measurements were performed according to the method referred by Canziani et al. (2004, Anal. Biochem. 325: 301-307). Furthermore, the affinity of the Slit2N protein (Slit2N is a protein having a molecular weight of about 120 kDa at the N-terminus of the Slit2 protein) to Robo1 protein was also determined by the same method.

[2] = Mean of 4 animals, single IV 2 mg/kg

Slit2D2(C386S)-HSA: Fusion protein of the Slit2 D2 domain with C386S mutation linked to human serum albumin; amino acid sequence SEQ ID NO: 3
Plasma drug concentration ([1]; 101-Male, day 0.125): 16151.832 ng/mL | Plasma drug concentration ([1]; 101-Male, day 0.25): 15501.583 ng/mL | Plasma drug concentration ([1]; 101-Male, day 0.5): 13047.082 ng/mL | Plasma drug concentration ([1]; 101-Male, day 2): 11326.279 ng/mL | Plasma drug concentration ([1]; 101-Male, day 5): 6773.314 ng/mL | Plasma drug concentration ([1]; 101-Male, day 6): 2717.981 ng/mL | Plasma drug concentration ([1]; 101-Male, day 8): 1577.577 ng/mL | Plasma drug concentration ([1]; 101-Male, day 11): BLQ (Below the minimum limit of quantitation) | Plasma drug concentration ([1]; 101-Male, day 14): BLQ (Below the minimum limit of quantitation) | Plasma drug concentration ([1]; 101-Male, day 17): BLQ (Below the minimum limit of quantitation) | Plasma drug concentration ([1]; 101-Male, day 19): BLQ (Below the minimum limit of quantitation) | Plasma drug concentration ([1]; 101-Male, day 22): BLQ (Below the minimum limit of quantitation) | Plasma drug concentration ([1]; 101-Male, day 26): BLQ (Below the minimum limit of quantitation) | Plasma drug concentration ([1]; 101-Male, day 29): BLQ (Below the minimum limit of quantitation) | Plasma drug concentration ([1]; 101-Male, day 36): BLQ (Below the minimum limit of quantitation) | Plasma drug concentration ([1]; 101-Male, day 43): BLQ (Below the minimum limit of quantitation) | AUC(0-t) ([1]; 101-Male, single IV 2 mg/kg): 45588.03 ng·days/mL | AUC(0-∞) ([1]; 101-Male, single IV 2 mg/kg): 50239.09 ng·days/mL | C0 ([1]; 101-Male, single IV 2 mg/kg): 16829.36 ng/mL | CL ([1]; 101-Male, single IV 2 mg/kg): 1.659 mL/h/kg | Cmax ([1]; 101-Male, single IV 2 mg/kg): 16151.83 ng/mL | MRT(0-∞) ([1]; 101-Male, single IV 2 mg/kg): 68.2 h | Tmax ([1]; 101-Male, single IV 2 mg/kg): 3.12 h | Vss ([1]; 101-Male, single IV 2 mg/kg): 0.11309 L/kg | t1/2 ([1]; 101-Male, single IV 2 mg/kg): 49 h | Plasma drug concentration ([1]; 102-Male, day 0.125): 12629.116 ng/mL | Plasma drug concentration ([1]; 102-Male, day 0.25): 13612.467 ng/mL | Plasma drug concentration ([1]; 102-Male, day 0.5): 13169.983 ng/mL | Plasma drug concentration ([1]; 102-Male, day 2): 8055.924 ng/mL | Plasma drug concentration ([1]; 102-Male, day 5): 4063.179 ng/mL | Plasma drug concentration ([1]; 102-Male, day 6): 2215.633 ng/mL | Plasma drug concentration ([1]; 102-Male, day 8): BLQ (Below the minimum limit of quantitation) | Plasma drug concentration ([1]; 102-Male, day 11): BLQ (Below the minimum limit of quantitation) | Plasma drug concentration ([1]; 102-Male, day 14): BLQ (Below the minimum limit of quantitation) | Plasma drug concentration ([1]; 102-Male, day 17): BLQ (Below the minimum limit of quantitation) | Plasma drug concentration ([1]; 102-Male, day 19): BLQ (Below the minimum limit of quantitation) | Plasma drug concentration ([1]; 102-Male, day 22): BLQ (Below the minimum limit of quantitation) | Plasma drug concentration ([1]; 102-Male, day 26): BLQ (Below the minimum limit of quantitation) | Plasma drug concentration ([1]; 102-Male, day 29): BLQ (Below the minimum limit of quantitation) | Plasma drug concentration ([1]; 102-Male, day 36): BLQ (Below the minimum limit of quantitation) | Plasma drug concentration ([1]; 102-Male, day 43): BLQ (Below the minimum limit of quantitation) | AUC(0-t) ([1]; 102-Male, single IV 2 mg/kg): 30270.94 ng·days/mL | AUC(0-∞) ([1]; 102-Male, single IV 2 mg/kg): 37136.49 ng·days/mL | C0 ([1]; 102-Male, single IV 2 mg/kg): 12629.12 ng/mL | CL ([1]; 102-Male, single IV 2 mg/kg): 2.244 mL/h/kg | Cmax ([1]; 102-Male, single IV 2 mg/kg): 13612.47 ng/mL | MRT(0-∞) ([1]; 102-Male, single IV 2 mg/kg): 67.4 h | Tmax ([1]; 102-Male, single IV 2 mg/kg): 6 h | Vss ([1]; 102-Male, single IV 2 mg/kg): 0.15145 L/kg | t1/2 ([1]; 102-Male, single IV 2 mg/kg): 51.6 h | Plasma drug concentration ([1]; 103-Female, day 0.125): 13162.76 ng/mL | Plasma drug concentration ([1]; 103-Female, day 0.25): 11266.684 ng/mL | Plasma drug concentration ([1]; 103-Female, day 0.5): 9508.594 ng/mL | Plasma drug concentration ([1]; 103-Female, day 2): 5952.269 ng/mL | Plasma drug concentration ([1]; 103-Female, day 5): 3914.939 ng/mL | Plasma drug concentration ([1]; 103-Female, day 6): 2155.966 ng/mL | Plasma drug concentration ([1]; 103-Female, day 8): 731.688 ng/mL | Plasma drug concentration ([1]; 103-Female, day 11): BLQ (Below the minimum limit of quantitation) | Plasma drug concentration ([1]; 103-Female, day 14): BLQ (Below the minimum limit of quantitation) | Plasma drug concentration ([1]; 103-Female, day 17): BLQ (Below the minimum limit of quantitation) | Plasma drug concentration ([1]; 103-Female, day 19): BLQ (Below the minimum limit of quantitation) | Plasma drug concentration ([1]; 103-Female, day 22): BLQ (Below the minimum limit of quantitation) | Plasma drug concentration ([1]; 103-Female, day 26): BLQ (Below the minimum limit of quantitation) | Plasma drug concentration ([1]; 103-Female, day 29): BLQ (Below the minimum limit of quantitation) | Plasma drug concentration ([1]; 103-Female, day 36): BLQ (Below the minimum limit of quantitation) | Plasma drug concentration ([1]; 103-Female, day 43): BLQ (Below the minimum limit of quantitation) | AUC(0-t) ([1]; 103-Female, single IV 2 mg/kg): 28598.53 ng·days/mL | AUC(0-∞) ([1]; 103-Female, single IV 2 mg/kg): 30524.24 ng·days/mL | C0 ([1]; 103-Female, single IV 2 mg/kg): 15377.93 ng/mL | CL ([1]; 103-Female, single IV 2 mg/kg): 2.73 mL/h/kg | Cmax ([1]; 103-Female, single IV 2 mg/kg): 13162.76 ng/mL | MRT(0-∞) ([1]; 103-Female, single IV 2 mg/kg): 61.9 h | Tmax ([1]; 103-Female, single IV 2 mg/kg): 3.12 h | Vss ([1]; 103-Female, single IV 2 mg/kg): 0.16888 L/kg | t1/2 ([1]; 103-Female, single IV 2 mg/kg): 43.7 h | Plasma drug concentration ([1]; 104-Female, day 0.125): 13541.873 ng/mL | Plasma drug concentration ([1]; 104-Female, day 0.25): 12289.107 ng/mL | Plasma drug concentration ([1]; 104-Female, day 0.5): 10597.55 ng/mL | Plasma drug concentration ([1]; 104-Female, day 2): 8296.324 ng/mL | Plasma drug concentration ([1]; 104-Female, day 5): 3663.777 ng/mL | Plasma drug concentration ([1]; 104-Female, day 6): 1433.272 ng/mL | Plasma drug concentration ([1]; 104-Female, day 8): BLQ (Below the minimum limit of quantitation) | Plasma drug concentration ([1]; 104-Female, day 11): BLQ (Below the minimum limit of quantitation) | Plasma drug concentration ([1]; 104-Female, day 14): BLQ (Below the minimum limit of quantitation) | Plasma drug concentration ([1]; 104-Female, day 17): BLQ (Below the minimum limit of quantitation) | Plasma drug concentration ([1]; 104-Female, day 19): BLQ (Below the minimum limit of quantitation) | Plasma drug concentration ([1]; 104-Female, day 22): BLQ (Below the minimum limit of quantitation) | Plasma drug concentration ([1]; 104-Female, day 26): BLQ (Below the minimum limit of quantitation) | Plasma drug concentration ([1]; 104-Female, day 29): BLQ (Below the minimum limit of quantitation) | Plasma drug concentration ([1]; 104-Female, day 36): BLQ (Below the minimum limit of quantitation) | Plasma drug concentration ([1]; 104-Female, day 43): BLQ (Below the minimum limit of quantitation) | AUC(0-t) ([1]; 104-Female, single IV 2 mg/kg): 28034.90 ng·days/mL | AUC(0-∞) ([1]; 104-Female, single IV 2 mg/kg): 31263.33 ng·days/mL | C0 ([1]; 104-Female, single IV 2 mg/kg): 14922.35 ng/mL | CL ([1]; 104-Female, single IV 2 mg/kg): 2.665 mL/h/kg | Cmax ([1]; 104-Female, single IV 2 mg/kg): 13541.87 ng/mL | MRT(0-∞) ([1]; 104-Female, single IV 2 mg/kg): 50.4 h | Tmax ([1]; 104-Female, single IV 2 mg/kg): 3.12 h | Vss ([1]; 104-Female, single IV 2 mg/kg): 0.13446 L/kg | t1/2 ([1]; 104-Female, single IV 2 mg/kg): 37.4 h | AUC(0-t) [1, 2]: 33123.10 ng·days/mL | AUC(0-∞) [1, 2]: 37290.79 ng·days/mL | C0 [1, 2]: 14939.69 ng/mL | CL [1, 2]: 2.325 mL/h/kg | Cmax [1, 2]: 14117.23 ng/mL | MRT(0-∞) [1, 2]: 61.9 h | Tmax [1, 2]: 3.84 h | Vss [1, 2]: 0.14197 L/kg | t1/2 [1, 2]: 45.4 h | Plasma drug concentration ([1]; Mean, day 0.125): 13871.40 ng/mL | Plasma drug concentration ([1]; Mean, day 0.25): 13167.46 ng/mL | Plasma drug concentration ([1]; Mean, day 0.5): 11580.80 ng/mL | Plasma drug concentration ([1]; Mean, day 2): 8407.70 ng/mL | Plasma drug concentration ([1]; Mean, day 5): 4603.80 ng/mL | Plasma drug concentration ([1]; Mean, day 6): 2130.71 ng/mL | Plasma drug concentration ([1]; Mean, day 8): 1154.63 ng/mL | Observation during the test (morbidity, damage, death rate, food and water supply) ([1]; single IV 2 mg/kg): No abnormal findings | ratio of AUC(0-∞) between male and female ([1]; single IV 2 mg/kg): 1.41 | ratio of Cmax between male and female ([1]; single IV 2 mg/kg): 1.11 | ratio of t1/2 between male and female ([1]; single IV 2 mg/kg): 1.24 | Ka (Robo1 protein): 864700 M⁻¹ s⁻¹
